B1: Prickle-like protein 1 (Mus musculus), Q3U5C7 (parent)
chain: MPLEMEPKMSKLVFGCQRSSTSDDDSGCALEEYAWVPPGLRPEQIQLYFACLPEEKVPYVNSPGEKHRIKQLLYQLPPHDNEVRYCQSLSEEEKKELQVFSAQRKKEALGRGTIKLLSRAVMHAVCEQCGLQMNGGEVAVFASRAGPGVCWHPSCFVCFTCNELLVDLIYFYQDGKIHCGRHHAELLKPRCSACDEIIFADECTEAEGRHWHMKHFCCLECETVLGGQRYIMKDGRPFCCGCFESLYAEYCETCGEHIGVDHAQMTYDGQHWHATEACFSCAQCKASLLGCPFLPKQGQIYCSKTCSLGEDIHASDSSDSAFQSARSRDSRRSVRMGRSSRSADQCRQSLLLSPALNYKFPGLSGNADDTLSRKLDDVSLASRQGAGFANEEFWKARVEQEASEDPEEWAEHEDYMTQLLLKFGDKNLFQQQSSEVDPRASEHWIPDNMVTNKPEVKPNHQGLASKKYQSDMYWAQSQDGLGDSAYGSHPGPASSRRLQELDLDHGAAGYTHDQSQWYEDSLECLSDLKPEQSIRDSMDSLALSNITGASVDGESKPRPSLYSLQNFEEIEAEDCEKMSNMGTLNSSMLHRSAESLQSLNSGLCPEKILPEEKPAHLPVLRRSKSQSRPQQVKFSDDVIDNGSYDIEIRQPPMSERTRRRAYHFEERGSRPHHHRHRRSRKSRSDNALNLVTERKYSAKDRLRLYTPDNYEKFIQNKSARELQAYMQNANLYSQYAHATSDYALQNPGMNRFLGLCGEDDDSWCSSSTSSSDSEEEGYFLGQPIPQPRPQRFTYYTDDLSSPASALPTPQFTQRTTKSKKKKGHKGKNCIIS
partner: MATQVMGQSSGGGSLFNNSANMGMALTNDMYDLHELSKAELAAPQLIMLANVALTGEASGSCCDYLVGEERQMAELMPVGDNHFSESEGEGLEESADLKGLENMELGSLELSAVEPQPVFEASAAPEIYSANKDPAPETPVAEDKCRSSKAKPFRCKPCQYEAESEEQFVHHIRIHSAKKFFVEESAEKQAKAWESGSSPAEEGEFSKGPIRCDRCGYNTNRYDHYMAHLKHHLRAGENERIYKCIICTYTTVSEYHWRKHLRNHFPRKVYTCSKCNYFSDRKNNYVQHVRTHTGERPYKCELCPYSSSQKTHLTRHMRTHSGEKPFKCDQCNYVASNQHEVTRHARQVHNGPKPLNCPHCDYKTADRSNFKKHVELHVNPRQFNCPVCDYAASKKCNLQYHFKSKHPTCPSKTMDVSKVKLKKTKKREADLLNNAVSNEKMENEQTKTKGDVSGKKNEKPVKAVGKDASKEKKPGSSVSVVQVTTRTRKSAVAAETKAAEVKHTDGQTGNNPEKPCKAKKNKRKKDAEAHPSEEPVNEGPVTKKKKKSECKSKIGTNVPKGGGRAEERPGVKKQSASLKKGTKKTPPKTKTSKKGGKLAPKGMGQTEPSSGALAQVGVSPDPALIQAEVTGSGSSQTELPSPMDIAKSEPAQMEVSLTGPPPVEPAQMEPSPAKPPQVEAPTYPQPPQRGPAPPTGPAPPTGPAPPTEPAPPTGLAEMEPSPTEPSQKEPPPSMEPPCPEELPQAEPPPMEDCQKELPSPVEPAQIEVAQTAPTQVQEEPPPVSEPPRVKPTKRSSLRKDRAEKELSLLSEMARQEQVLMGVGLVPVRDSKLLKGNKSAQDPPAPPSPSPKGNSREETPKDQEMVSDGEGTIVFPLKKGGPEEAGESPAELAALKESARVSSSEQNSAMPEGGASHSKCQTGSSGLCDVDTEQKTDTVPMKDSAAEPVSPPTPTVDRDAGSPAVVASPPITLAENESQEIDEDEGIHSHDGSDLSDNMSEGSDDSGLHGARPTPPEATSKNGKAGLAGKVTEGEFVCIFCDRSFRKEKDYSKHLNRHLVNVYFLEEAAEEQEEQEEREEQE

Variants of: B1
Conditions: with rest_mouse Rest

| effect of a mutation on the interaction | Variant |
| --- | --- |
| decreasing interaction | R104Q |
